Bridge positions count the residues as written; N and C are the ends. Ends that are not written are not given here.
Columns and labels:
bovine serum albumin [1] = target: T1, bovine serum albumin (bovine, UniProt P02769 25-607); assay: FITC-peptide saturation binding on coated wells, fluorescence plate reader
T1 construct: Control protein coated on wells; also called BSA

purified Integrin αvβ3 [2] = target: T2, purified Integrin αvβ3 (UniProt P06756 31-992; P05106 27-718, limits assumed); assay: competitive homologous binding: varied unlabeled ALOS4 against 10 µM ALOS4-FITC on αvβ3-coated wells; competitive homologous binding, unlabeled ALOS4 against 10 µM ALOS4-FITC (panel D)
T2 construct: Purified integrin coated on 96-well plates; also called integrin alpha-v-beta3; αVβ3 integrin
T2 sequence (P06756 31-992 limits assumed, chain 1 of 2): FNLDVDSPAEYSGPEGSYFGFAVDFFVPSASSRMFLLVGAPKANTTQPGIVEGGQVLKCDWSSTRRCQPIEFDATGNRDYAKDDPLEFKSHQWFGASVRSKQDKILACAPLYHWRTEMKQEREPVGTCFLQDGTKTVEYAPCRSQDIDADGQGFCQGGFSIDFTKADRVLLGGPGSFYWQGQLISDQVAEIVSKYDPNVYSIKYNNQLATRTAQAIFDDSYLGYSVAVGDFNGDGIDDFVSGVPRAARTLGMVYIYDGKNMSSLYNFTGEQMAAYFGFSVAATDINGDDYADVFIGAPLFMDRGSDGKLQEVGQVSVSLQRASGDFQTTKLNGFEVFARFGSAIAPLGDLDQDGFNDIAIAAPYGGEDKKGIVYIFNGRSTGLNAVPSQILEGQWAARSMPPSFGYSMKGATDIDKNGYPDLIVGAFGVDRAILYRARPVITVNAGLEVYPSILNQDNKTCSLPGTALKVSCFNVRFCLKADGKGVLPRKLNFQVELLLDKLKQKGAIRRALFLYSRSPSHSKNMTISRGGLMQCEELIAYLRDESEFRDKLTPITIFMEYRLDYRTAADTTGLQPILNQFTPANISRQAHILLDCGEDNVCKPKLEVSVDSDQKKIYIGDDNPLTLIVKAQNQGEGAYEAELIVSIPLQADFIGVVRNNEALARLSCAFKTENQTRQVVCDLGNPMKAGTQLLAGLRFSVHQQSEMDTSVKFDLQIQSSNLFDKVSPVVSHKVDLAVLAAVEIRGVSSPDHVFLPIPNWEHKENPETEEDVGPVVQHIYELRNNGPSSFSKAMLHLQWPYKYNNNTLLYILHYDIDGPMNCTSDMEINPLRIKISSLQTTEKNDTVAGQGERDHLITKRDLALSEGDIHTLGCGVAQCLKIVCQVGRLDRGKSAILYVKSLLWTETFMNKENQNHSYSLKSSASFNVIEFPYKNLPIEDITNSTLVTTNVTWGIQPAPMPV
T2 sequence (P05106 27-718 limits assumed, chain 2 of 2): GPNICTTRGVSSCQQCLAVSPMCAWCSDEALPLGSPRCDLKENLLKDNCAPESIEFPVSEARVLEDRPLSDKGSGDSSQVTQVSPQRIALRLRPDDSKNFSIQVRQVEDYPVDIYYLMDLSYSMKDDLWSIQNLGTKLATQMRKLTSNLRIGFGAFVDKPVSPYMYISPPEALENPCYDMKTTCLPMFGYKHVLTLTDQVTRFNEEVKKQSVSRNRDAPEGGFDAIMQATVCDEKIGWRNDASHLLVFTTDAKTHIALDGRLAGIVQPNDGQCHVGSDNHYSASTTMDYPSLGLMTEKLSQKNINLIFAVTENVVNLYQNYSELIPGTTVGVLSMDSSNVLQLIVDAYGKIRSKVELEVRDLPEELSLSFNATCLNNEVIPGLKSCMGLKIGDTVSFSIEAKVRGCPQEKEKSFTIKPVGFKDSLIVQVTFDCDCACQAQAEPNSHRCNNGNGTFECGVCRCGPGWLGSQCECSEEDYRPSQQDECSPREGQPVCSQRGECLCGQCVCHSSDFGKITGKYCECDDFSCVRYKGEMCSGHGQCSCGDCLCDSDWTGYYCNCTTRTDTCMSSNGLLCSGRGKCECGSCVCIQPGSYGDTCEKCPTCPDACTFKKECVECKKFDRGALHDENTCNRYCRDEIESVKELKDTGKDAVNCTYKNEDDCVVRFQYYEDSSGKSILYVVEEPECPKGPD
Experimental: (§1) FIGS. 12A-12D illustrate selective binding of ALOS4 to αvβ3. (A) ALOS4-FITC binding in wells pre-coated with integrin αvβ3. […] (B) ALOS4-FITC binding in wells coated with collagen or BSA. (C) Binding of random, FTIC-labeled cyclic peptide controls (DPDFP and DSLFP) in wells pre-coated with integrin αvβ3. (D) Competitive homologous binding of ALOS4 to αvβ3 integrin. 10 μM of ALOS4-FITC peptide was incubated with different concentrations of unlabeled ALOS4 on wells pre-coated with αvβ3. […] Data are expressed as percent reduction of maximal fluorescence signal.
(§2) Binding assay: The binding of peptides to immobilized purified integrin alpha-v-beta3 was evaluated using a fluorescein (FITC) labeled peptides. Purified integrin alpha-v-beta3 was first immobilized onto high-protein binding 96-well plates for 2 hour at 37° C. followed by blocking for two hours with 5% fat dry milk in TBS. After that, plates were washed four times with 200 μl TBS. a) For saturation assays plates were incubated with 100 μl of FITC-labeled peptides solutions in 0.01% BSA in Saline for 30 min at RT. […] After second wash 100 μl of TBS was added to the each well and fluorescence signal was read at excitation 490 nm and emission 525 nm using Enspire Plate reader (PerkinElmer). […]

bovine serum albumin [3] = target: T1, bovine serum albumin; assay: ALOS4-FITC in wells coated with BSA, % of total binding
Experimental: as §1, §2

purified Integrin αvβ3 [4] = target: T2, purified Integrin αvβ3; assay: saturation binding: ALOS4-FITC in wells pre-coated with integrin αvβ3, % of total binding
Experimental: as §1, §2

purified Integrin αvβ3 [5] = target: T2, purified Integrin αvβ3; assay: saturation binding of ALOS4-FITC in wells pre-coated with integrin αvβ3, fluorescence, nonlinear regression; direct saturation binding of ALOS4-FITC on αvβ3-coated wells (panel A)
Experimental: as §1, §2

bovine serum albumin [6] = target: T1, bovine serum albumin; assay: FITC-labeled peptide added for 30 min to BSA-coated wells, fluorescence plate reader
Experimental: FIG. 7 is a graph illustrating binding of Fluorescein (FITC)—labeled ALOS peptides to purified Integrin αvβ3, collagen (CG) and bovine serum albumin (BSA). Peptides (concentrations 100 uM, 30 uM, 10 uM, luM) were added to integrin pre-coated wells for 30 min. The fluorescence was measured using Enspire plate reader (PerkinElmer). The plots were built using nonlinear regression analysis (GraphPad Prism).
Binding assay: The binding of peptides to immobilized purified integrin alpha-v-beta3 was evaluated using a fluorescein (FITC) labeled peptides. Purified integrin alpha-v-beta3 was first immobilized onto high-protein binding 96-well plates for 2 hour at 37° C. followed by blocking for two hours with 5% fat dry milk in TBS. After that, plates were washed four times with 200 μl TBS. a) For saturation assays plates were incubated with 100 μl of FITC-labeled peptides solutions in 0.01% BSA in Saline for 30 min at RT. B) For competition assays plates were incubated with different concentrations of unlabeled peptides for 30 min in RT followed by addition of fixed concentration of FITC-labeled peptides and additional incubation for 30 min. Wells were washed twice with TBS. After second wash 100 μl of TBS was added to the each well and fluorescence signal was read at excitation 490 nm and emission 525 nm using Enspire Plate reader (PerkinElmer). Binding data analysis was performed using Prism software (GraphPad Software, San Diego, Calif.). Binding curves were fit using nonlinear regression approaches.

T1 sequence (P02769 25-607 limits assumed): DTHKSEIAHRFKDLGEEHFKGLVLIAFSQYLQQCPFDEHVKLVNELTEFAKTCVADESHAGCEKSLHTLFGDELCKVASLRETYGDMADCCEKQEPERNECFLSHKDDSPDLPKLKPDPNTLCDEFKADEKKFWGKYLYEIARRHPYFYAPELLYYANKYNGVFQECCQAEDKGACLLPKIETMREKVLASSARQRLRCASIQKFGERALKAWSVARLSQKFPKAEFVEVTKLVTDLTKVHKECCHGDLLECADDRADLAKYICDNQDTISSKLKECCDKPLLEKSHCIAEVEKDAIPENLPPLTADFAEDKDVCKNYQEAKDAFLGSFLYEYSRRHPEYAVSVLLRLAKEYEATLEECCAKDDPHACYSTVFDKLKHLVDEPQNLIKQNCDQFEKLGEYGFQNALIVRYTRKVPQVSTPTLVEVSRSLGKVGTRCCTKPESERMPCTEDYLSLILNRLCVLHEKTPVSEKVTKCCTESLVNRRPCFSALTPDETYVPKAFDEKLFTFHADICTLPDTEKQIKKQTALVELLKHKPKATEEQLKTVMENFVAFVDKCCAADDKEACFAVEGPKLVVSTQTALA

B1: ALOS-5, fluorescein (FITC)-labeled (peptide)
peptide: CPLHARLPC
modifications: not fully specified (bridges); cysteine pairing not given here; also: FITC label, position not given here
notes: Synthetic peptide from the phage display screen; also called ALOS peptides; ALOSs
B1: no binding (bovine serum albumin [1]).

Binder CSSAGSLFC (disulfide 1-9 (inferred), Its concentration was varied) [unlabeled ALOS4] has a Kd (purified Integrin αvβ3 [2]) of 2550 nM.

B2: ALOS-4, fluorescein (FITC)-labeled (peptide)
peptide: CSSAGSLFC
modifications: disulfide 1-9 (inferred); also: FITC label, position not given here
notes: Synthetic peptide from the phage display screen; also called ALOS4-FITC; ALOS peptides
For B2, the binding result (bovine serum albumin [3]) was “no binding (tested: 100 µM)”, the “EC50 (read off the curve)” value (purified Integrin αvβ3 [4]) was roughly 200 nM and the Kd (purified Integrin αvβ3 [5]) was 192 nM.

B3: ALOS-2, fluorescein (FITC)-labeled (peptide)
peptide: CPPSNHLLC
modifications: not fully specified (bridges); cysteine pairing not given here; also: FITC label, position not given here
notes: as for B1
B3: no binding (tested: 100 µM) (bovine serum albumin [6]).

B4: ALOS-1, fluorescein (FITC)-labeled (peptide)
peptide: CNLSSSWIC
modifications: not fully specified (bridges); cysteine pairing not given here; also: FITC label, position not given here
notes: as for B1
B4: no binding (tested: 100 µM) (bovine serum albumin [6]).

B5: ALOS-3, fluorescein (FITC)-labeled (peptide)
peptide: CAPSPSRLC
modifications: not fully specified (bridges); cysteine pairing not given here; also: FITC label, position not given here
notes: as for B1
B5: no binding (tested: 100 µM) (bovine serum albumin [6]).

Source: patent US20190194253A1 (ARIEL UNIVERSITY RESEARCH AND DEVELOPMENT, published 2019)
